For 22 sequences, protein production results are on record in a protein production outcome set (Wang et al. 2014).

This data set in a line: label from the status in PepcDB records.
Take “MVKLDRYIGVTVFVAILAVLGVILGLALLFAFIDELNDISASYGIGDALRFIFLTAPRRAYDMLPMAALIGCLVGLGTLASNSELTIMRAAGVSLSRIVWAVMKPMLVLMLAGILVGEYVAPWTENIAQSGRALAQGGGDSQSSKRGLWHRQGREYIHINAVQPNGVLYGVTRYRFDEQRGLESASFAKRARFETDHWQLEEVTTTLLHPREKRSEVVKLPTERWDAQLSPQLLNTVVMEPEALSISGLWQYIHYLADQGLNNNRYWLAFWTKVLQPLVTAALVLMAISFIFGPLRSVTLGQRIFTGVLVGFVFRIAQDLLGPSSLVFDFPPLLAVVIPASICALAGVWLLRRAG”: the protein production result was “failed”. Then “MVKTMAKKKAVKVLRKQKKRETLRRFTQKQNIGRACLTAQEFRLLQRMSHSSKALRNVGLYTMKQSYLNHNKMATVKEVDIAMQADMNYWGIQSNSLQAIRRALFTEVKSFFKALEKWKKNPEKFTGRPKFPNYSHSTDKRIIEIYQVPKVDENGFWMIPMSVAFRKKFGSIKIRMPKNLRNKNISYIEIVPKQKGRFFEVHYTYEMHVSQMKKQPMTTSNALGCDLGVDRLVSCVTNTGDAFLIDGKKLKSINQYFNKTIRNLQQKNVENGLSKRIVTNKIAALWHKRERQIHGYIAQTVGLLFKKVKEFDIDTIVVGYNAGWKQNSHMGKKNNQKFVQIPFHKLIAAIENKCIKEGIRFFKQEESYTSKASFLDKDPVPVWSKDDRTQYRFSGKRITRGLYQSKAGTCIHADINGALNTLQKSQVVELDGNLKVKTPILLEVQKRKAVASRIALEHHHHHH”, with “failed”; and “MVKYAKTPKSFINIKDLGFALLETDELDGTIKYSNVTQTRGLQEISVETGGEIVNAYADGSIIESGTTDGEGKISMTMHAFPQEIRELIFNEIYNEAGVYSEERGKQNNYVAVWFKRERRDGSYQQVGLTKVMFADPNLEGKTAEEDWEFSSEESEGTAMHRIADGKRKILFDSSREGANVDSFFQELLNGAYDSKTEVDTGDSTTGESAAEALEHHHHHH”, with “failed”. Then “MVLEYVYCLLAFCLYFMAYCINPDCSQRENPDTSAVCQNCGTPLILQNRYRLRHFLRTDRGSYTEVFAIEDLVNRDQPKVLKSLKEVTPQLERLFQQEASILNTLRHPGLPIGEALFPLVLNTGRQLWCFVMEKIPGEDLQTWLSHHQYVTSYKTALDWLKQLTQILQFVHEEKFFHRDIKPANIMVCPDGKLVLIDFGAARKVTQTIINRESVTIVHSLGYTAPEQRDGHAVVQSDFYALGRTLIYLLTGIDPTGDRAQDLLNWSKYIQDPKTPKKFISLLQVMTDSHPYHRPPTAQAILEKIEKIDQHSHQWPKLLLSATCGVLLLFAGKSLYQEITLPRTCDNILNDYLSCGEESLTPSSFWGNSQPPPAKQLGMEQYRNRNFGAAVNFLETAFQQESDPETLIYLNNAKIHQQFPANQIYTIAVAVPLERRTDIGREILRGVAQAQTEALKKGRALRIIIADDSNREDSKTGNNARKIAQHLVKYRDLLAVLGHYSSEATKNSLPIYSQARVVLISATSTSQNLKDPFFFRTVPSDRIAAQKMVTYLLSALKQNQVAIFYSRGSEYAESLSQAVRESTKSLPLKVIDHQAAFNLASDRFNAITALNQAQTQGAKAIVLIPDAGVGLYNAIPNALRVIQSNINQVWIVAGDSLYSSDSFTSEKAFSSPEIKYTAWAVFWHPLNEINSTFVKEVQNLWKIDILSILSNTNITWRTATSYDATLVLSQAITQNPTRLGIKKTLSQPQFSVTGATGVIQFAGSDRQNGKITMVRVQRNCDDNGFFFIPSDRSLQCQ”, with “failed”; and “MVLIALLIALSVERLYHSPAFLHWSFFLERWQHWSAARLTNEKWKSEPLQLVRLLVPALAVGFLVVLLDNLMVTFIVSILSLLLAMNCEPARKSYKAYLKAANRGDEQQVNEHQHALTEFAGQHQPKQLSDSLIWINYRQYIAVMFYFVLFGSFGALVYASLRYAEKQISEPESTKLWQQFMWFADWVPARLAGFGLLIVGHFSRAFPVWVKHSLNPQADPDKLLFNVASKAEDIPQHPDDRTEHIACQLRLMRRQQIFWVCVIAALTLTGWVN”, with “failed”; and “MVLKRKGLLIILDGLGDRPIKELNGLTPLEYANTPNMDKLAEIGILGQQDPIKPGQPAGSDTAHLSIFGYDPYETYRGRGFFEALGVGLDLSKDDLAFRVNFATLENGIITDRRAGRISTEEAHELARAIQEEVDIGVDFIFKGATGHRAVLVLKGMSRGYKVGDNDPHEAGKPPLKFSYEDEDSKKVAEILEEFVKKAQEVLEKHPINERRRKEGKPIANYLLIRGAGTYPNIPMKFTEQWKVKAAGVIAVALVKGVARAVGFDVYTPEGATGEYNTNEMAKAKKAVELLKDYDFVFLHFKPTDAAGHDNKPKLKAELIERADRMIGYILDHVDLEEVVIAITGDHSTPCEVMNHSGDPVPLLIAGGGVRTDDTKRFGEREAMKGGLGRIRGHDIVPIMMDLMNRSEKFGA”, with “not failed”. Then “MVLLEKLWDDVVAGPQPDRGLGRLRKITTQPINIRDIGEGSSSKVVMHRSLTMPAAVSPGTPTTPTTPTTPRKDNVWRSVFNPGSNLATRAIGSNIFDKPTHPNSPSVYDWLYSGDSRSQHR”, with “failed”; and “MVLLIVDGIIVAISAIAFSPDTVMYSILSLYVVSLTIDKMMVGLNSSRNLLIISQKSDQILNYITNGADRGATKIPVLGGHTGHSQNMIMTTLSTHEVPKVQEEIQKIDETAFIVIIPASTVMGRGFSLQKDYKSVPNDFINPL”, with “failed”.

As for “MVMEYELRTPLVKDQILKLKVGDVVYITGEIFTARDEAHARALEWMEEGKELPFSFDKGVVYHCGPLVKKNDEWRVVSAGPTTSARMNPFTPKILEKVECMGIIGKGGMSEEVVEAMRGKAAYFAFTGGAGALAAMSIKKVKGVVWEDLGMPEAVWLLEVERFGPCIVAIDAHGNSLYRR”, the protein production entry is given as “not failed”. Then “MVMMEQCAWPYIRSVRVRVGERTRAGGEFDLMGTTTRRNASAMKMVGALLALYRQAAGHTQRSLGERFVIGEQQIASIEQGRRPLKPDLAEQLDELLGTKGALSTALSKMPEVDLVPLWAEEFLDREREAIAISSYENQVLPGLLQTEAYAWAVFRSRVPFYDEDTIARLAAARIERQGILQGKEPPITCFVVWEPVVRAPIGGRTVWREQLQRLRACSELPGLMLQVLPQDRTSHAGLNGPFVLLETPEHQRLAYTENQRGSQLIADADEVAILTQKCAMLRSQALTPEDTRDLLDRLLGEQ”, with “failed”; and “MVMMSKQLTAQAPVDPIVLGKMGSSYGIRGWLRVFSSTEDAESIFDYQPWFIQKAGQWQQVQLESWKHHNQDMIIKLKGVDDRDAANLLTNCEIVVDSSQLPQLEEGDYYWKDLMGCQVVTTEGYDLGKVVDMMETGSNDVLVIKANLKDAFGIKERLVPFLDGQVIKKVDLTTRSIEVDWDPGFLEHHHHHH”, with “failed”; and “MVNFEEMTFENIMESMLDAVPATLDKREGSMIWNSLAPAASQIALLYTWLENAFELVFYDTAPDEFLDRAAAPYGVIRKPAVATQRIIKGIDENDNKIEIPEGSRFFVESENIYFKVTSSTILEQVVECEVAGTKGNADFSNDTILSLDNIYGLAKVEIGDILIPGSDEEELETFRKRFFTKIQKDAFSGNKNHYKLWAEEVLGVGKAKIYPLGYGEGTVKIVITDTNLHPASPTLVEQVRNYIDPLPQKGEGVAPIGAKVFIESAAWKTINISGQLVLKDGKSVNDVIEEITMDINKLFKSITFPEDELTSVKLAVISNIIFSAPSVLDNFNIKLNNEAANIILAENEVPQLGAFSFELILEHHHHHH”, with “failed”. Then “MVNLGAMLFRGRGVKLSQQFAVIGLGRFGRGVCETLHGMGYEVLGSDNQERLVNQVLQDHIVDHAIQLDATDPQALKEAGIFEFETVIVAIGNHLDASIITTLNLKEAGVPKVIAKASSEVHKKLLERVGADRVVFPEYEAGCELARSLTRPAILDCLNLDPQKSIVEVKVPEAFHGRTVAEVELRSRYGLNLIALRFDDKFEINPSPSQKLHQGDIMVVIGDNNDIERFLRSQHVH”, with “failed”; and “MVNPTIPDDLLAKIAKTVAHKCWWDLQPLLRSGRRGRDVVYRPDVLKGANIFSMCEDPDDYQVDGSHHPSGPQEEGRHRAFFKRCVDAGNPTTMYFEALCVLTHERDIKGAINLLRPHVPSQAHATLACAILYIIDGNDYMGAIFLNLFGRNHYPLGTEETRDLCEEFLEDLKKFRPPYNNTYGSTFSYPNSHGIKTPDCALLCYIVSGPFKNVCNCCYLWWCARRVSQML”, with “failed”. Then “MVNTRNIIRQFTPNWFTTIMGTGVVAIVLGHFSELHTLGAALWLINTCLFCVFCILYMLRWSLFPHEARQIFHHPSMSLFLGAIPMALATLINGLLMYGNTVFGQHLPQLALWLWYIDVVLVISIGWVVPYFMFSRQQHHLHSITAMWLLPIVAAEVAAATGGLLVAEFVHSTQAISILWLSYMLWGMSVLPAFAILSLLILRLALHKLPEKELAISSWLSIGPIGTGALAMMLLGQHAPDVLQSIGMQSFGIFLQQAAKLISLVLLGCGVWWLGIAMFASLHHLKHGIPFNLGWWGLTFPLGVFTLALSQLGQLLGWNAFDHIAVILSVILVGLWSCVAVKTIQGAYRGQLFFSPCLQQLQQQQKACAQSETA”, with “failed”; and “MVNVDHDRFTTLVHELNQAKYEFHYKCAELVSNHEAAQPKKVLDEKKMDLEKLYEKVKEVMKKMVAFAENPKKEG”, with “failed”; and “MVNYKEKLDEAIHLTQQKGFEQTRAEWLMLDVFQWTRTDFVVHMHDDMPKAMIMKFDLALQRMLLGEPIQYIVGFASFYGRTFDVNSNCLIPRPETEEVMLHFLQQLEDDATIVDIGTGSGVLAITLKCEKPDLNVIATDISLEAMNMARNNAEKHQSQIQFLTGDALKPLINEGIKLNGLISNPPYIDEKDMVTMSPTVTRFEPHQALFADNHGYAIYESIIEDLPHVMEKGSPVVFEIGYNQGEALKSIILNKFPDKKIDIIKDINGHDRIVSFKW”, with “failed”.

With “MVPLESSTLFGVYGGFTDSMMMRETTTNNQDPSGDTCSVSDPAPGSTDYYNISSSPVKDDGTAPKNDVVCSINVDDNKDKSWLRLGIGPEENTDGSYKLQRCCSKNGSGRENSLELSLFSSSSTAVSSSIDHLPTQPLQLPYHHDQLLTMRGPSLVYNHQLMKPQTLLNRGFSFPSSKPWIPQYMAPFRPSSLSDRDVTNNNSLSRSCCVDEGGAGPSSEFRVLDPPRRPHSGLWFLLQASQFQ”, the protein production entry is on record as “failed”. For “MVPMASNNLAYIKLRLLSLLVGLGIAALASLIIYAVAYYLFGIYSIGIIFGVFVLVLMMDLLQWFIGPYIVDMVYRAKKADPNRYGNIIAIVEEVAKLNGIRPPTLYISEVSFPNAFAYESPIAGRRIAITRPLLGILNEDELRAVIGHEIGHLKHHDSAVIMAIGLIPTLIFYFAYTTLFAGDRRNGGSAIILALVLMVVSFLFNIMVLSVNRLRESYADANAALTIPNGARNLQTALAKIVRYGSSAKNTAASMLLFANYDMDREDVETLIDKWRTMRVGILSDLFSDHPHPAKRIRLLDKLQDSS”, the protein production result is recorded as “failed”. Then “MVPPKLKQALELFKSLPKELRSQVLLEYAAKVPPPPPGVELERVHECQTPFFVHADVEGGKVRLYFHVPDEAPTVKAFAGLLREGLEGESPEAVLEVPPGFYRGYGLEEFFTPLRLRGLEAALLRLQAQVRKALTS”, with “not failed”; and “MVQAWYMDESTADPRKPHRAQPDRPVSLEQLRTLGVLYWKLDADKYENDPELEKIRKMRNYSWMDIITICKDTLPNYEEKIKMFFEEHLHLDEEIRYILEGSGYFDVRDKEDKWIRISMEKGDMITLPAGIYHRFTLDEKNYVKAMRLFVGEPVWTPYNRPADHFDARVQYMSFLEGTA”, with “not failed”; and “MVQEIIVDSGDIEFLTTPKEYKQQLLSLIECARQRIFITALYLQDDEAGREILHALYQAKANFPTIEINIFVDFNRGQRGLIGEKASLGNRALYLKLAHEYPHTVNIYGVAVKRKELEHHHHHH”, with “failed”.
